Measured values from patent publication US20250277208A1, “Method of Peptide Library Construction and Peptides Thereof” (Alcamena Stem Cell Therapeutics, LLC, priority 2024, published 2025).
Like-named read-outs stand apart in the source and are kept apart here. Blank lines part the entries; values can stand above or below the molecule they belong to.

Assays:
IL-6 = target: T1, IL-6 (Homo sapiens, UniProt P05231); experiment: Biacore surface plasmon resonance binding of peptides to immobilised IL-6; details: Table 2, mutation combinations; N terminus acetylated, C terminus amidated; nd = not detected; read-out: KD (nM) P < 0.05
T1 construct: purchased R&D Systems BT7270B
From the text: Two DNA fragments were amplified from a synthetic fragment of the IL-6R. The 5′ fragment was amplified with forward primer and a mixture of 432 reverse primers, each containing an overhang of 6 codons. The 3′ fragment was amplified with a mixture of 432 forward primers, also containing overhangs of six degenerate codons and the reverse primer. Either the first or the second nucleotide of each codon was replaced with a degenerate base. Following PCR amplification, DNA fragments were phosphorylated and ligated leading to various sequence rearrangements shown at the bottom of the FIG. 3. Four hundred thirty-two forward and reverse oligos with an overhang of 6 codons from the IL-6R binding domain were used for PCR. A degenerate nucleotide was inserted at the first or second position of each codon. When ligated, these sequences generated a library of 1×10^13 different DNA sequences. The library of DNA sequences was taken through eight rounds of mRNA Display generating a peptide library. Eighteen of the most abundant peptides in the peptide library were synthesized in a linear form and tested for binding to IL-6 using Biacore. One of the peptides (#9) (“Peptide 9”) from the peptide library, with the sequence of […] The twelve non-terminal residues represent the PepFusion library-derived DNA sequences, while N-terminal serine and C-terminal glycine come from the flanking linkers and were kept as a precaution, in case linker sequences contributed to peptide interaction with its target.
Binding reactions were performed in HBS-P/2% DMSO buffer (10 mM Hepes, pH 7.4, 150 mM NaCl, 0.05% P-20, 2% DMSO), which was filtered through […] filters and degassed before use. Biotinylated recombinant human IL-6 (IL-6-Biotin) was bound to the surface of a Biacore SA sensor chip of a Biacore T200 surface plasmon resonance unit as follows. The streptavidin surface of the chip (flow cells 1 and 2) was activated by injecting 20 μl of 1 M NaCl/50 mM NaOH at 20 μl/min, in 3 pulses. Biotinylated Recombinant Human IL6 was diluted with HBS-P buffer and an aliquot of 100 μl (2 micrograms/ml) was injected into flow cell 2 at 5 microliters/min to yield a signal of 1400 response units (RU) (10 microliters were injected). Any remaining activated residues on the streptavidin surface of flow cells 1 and 2 were blocked with 30 microliters 500 nM free Biotin.
(§1) Affinity scouting assay was performed at a flow rate of 30 microliters/min at 25° C. The analyte (60 microliter aliquots of peptides, at concentrations of 20 μM in HBS-P/2% DMSO buffer) was injected into flow cells 1 and 2 and the association reaction was recorded. The surface was then washed with HBS-P/2% DMSO for 3 min and the dissociation of the analyte from the bound IL6 was followed over time. The surfaces of the flow cells were regenerated with 30 microliters of 10 mM NaOH, followed 50 microliters of HBS-P/2% DMSO buffer.
as §1, with “Kinetics analysis of binding was performed” for “Affinity scouting assay was performed”, “concentrations of 0, 1.25 μM, 2.5 μM, 5 μM, 10 μM and 20 μM” for “concentrations of 20 μM”, “DMSO buffer. Sensorgrams were analyzed using BIAeveluation 3.2.1 software (Cytiva). Values from the reference flow cell were subtracted to obtain the values for specific binding. Data were globally fitted to the Langmuir model for a 1:1 mass transfer binding.” for “DMSO buffer.”

IL-6 signaling = IL-6 signaling (Homo sapiens, UniProt P05231); experiment: IL-6 Bioassay (Promega), luciferase reporter cells, inhibition of IL-6-induced cell signaling; type: cell-based; details: peptides incubated with IL-6 for 10 min, IL-6 0.5 nM, cells 6 hours
Chain of IL-6 signaling (P05231 30-212): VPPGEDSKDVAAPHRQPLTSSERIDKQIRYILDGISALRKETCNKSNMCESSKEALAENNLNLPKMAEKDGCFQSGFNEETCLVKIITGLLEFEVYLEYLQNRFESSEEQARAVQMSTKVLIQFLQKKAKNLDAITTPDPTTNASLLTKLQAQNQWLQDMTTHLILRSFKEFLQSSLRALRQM
Experimental: To verify the ability of the peptides of the invention to inhibit IL-6-signaling, they were tested with the IL-6 Bioassay Kit (Promega). This kit includes human cells engineered to express the IL-6 receptor and a luciferase reporter driven by a response element. When IL-6 binds, the IL-6R transduces intracellular signals resulting in luminescence (fluorescence). Inhibition of IL-6 interaction with the receptor leads to the decrease of the luciferase expression and lower fluorescence.
The selected peptides were incubated with IL-6 for 10 min before being added to cell culture medium. […] Peptides 27 (2), 38 (2) and 45 (2) were also tested.
The ability of peptides to inhibit IL-6 signaling pathway was tested with the IL-6 Bioassay from Promega (cat #JA2501). The bioluminescent signal is detected and quantified using Bio-Glo™ Luciferase Assay System. Different concentrations of the test peptides were mixed with IL-6 (0.5 nM) and added to the IL-6 Bioassay Cells according to the manufacturer's instructions. Cells were incubated for 6 hours in a humidified incubator at 37° C. and 5% CO2 concentration. Following incubation, 75 microliters of the Bio-Glo™ Reagent was added to the cell culture and the luminescence was measured with a Biotek Synergy HTX plate reader. Data was analyzed according to manufacturer's recommendations.

[1] = target: T2, Biotinylated recombinant human IL-6 (human, UniProt P05231 30-212, biotinylated (sites not given)); experiment: SPR (Biacore), IL-6 on chip
T2 construct: In the cell bioassay IL-6 (0.5 nM) was used in solution; also called Interleukin-6; IL-6-Biotin

[2] = target: T2, Biotinylated recombinant human IL-6; experiment: SPR (Biacore), IL-6 on chip; remark: listed apart in the source
[3] = target: T2, Biotinylated recombinant human IL-6; experiment: cell-based or functional assay

Molecule: Ac-SVRDLLRRMKVCVG-NH2 [27(2), SVRDLLRRMKVCVG]
Kd (IL-6): 580 ± 156 nM
IC50 (IL-6 signaling): 580 nM

Molecule: Ac-SVRDLLRRMCHIVG-NH2 [9(2), SVRDLLRRMCHIVG]
IC50 (IL-6 signaling): 85 nM

B1: Peptide 9 (2) (peptide)
peptide: Ac-SVRDLLRRMCHIVG-NH2
notes: peptide 9 with protected termini
Kd [1]: 300 nM
Kd [2]: 354 nM
IC50, inhibition of IL-6-induced cell signaling (IL-6 Bioassay, luciferase reporter cells) [3]: 85.4 nM

B3: Peptide 90 (peptide)
peptide: Ac-SFRDLIRMMKVCVG-NH2
Kd [1]: 30 nM
Kd [2]: 42 nM
IC50, inhibition of IL-6-induced cell signaling (IL-6 Bioassay, luciferase reporter cells) [3]: 1200 nM

Now from value to molecule:

IC50 (IL-6 signaling): 16800 nM
Molecule: Ac-TIRDLIRMMKVCVG-NH2 [Peptide 100, TIRDLIRMMKVCVG]

Kd [1]: 50 nM
Kd [2]: 59 nM
IC50, inhibition of IL-6-induced cell signaling (IL-6 Bioassay, luciferase reporter cells) [3]: 16800 nM
B2: Peptide 100 (peptide)
peptide: Ac-TIRDLIRMMKVCVG-NH2
